These results are taken from US20220306746A1 (CHINA MEDICAL UNIVERSITY HOSPITAL, published 2022).

Test [1] deals with T1, programmed cell death ligand 1 (PD-L1) on cells (UniProt Q9NZQ7 19-290, limits assumed).
T1 construct: whole, on cells; H1975, A549 and MDA-MB-231 are human tumour cell lines; also called PD-L1 aAPC/CHO-K1 cells
The test can be described thus: flow cytometry on H1975 cells, FITC-labelled nanobody 1 ng/ml [b]. As to the method:
In this example, the procedures of flow cytometric analysis of the anti-PD-L1 nanobody are as follows. The anti-PD-L1 nanobody (1 ng/ml) was pre-stained with FITC fluorescein by Fastlink Fluorescein Labeling Kit (Abnova), the procedures were performed according to the manual instructions. […] After washing with PBS, the cells were analyzed by flow cytometry using FL1 channel.
For orientation: A flow cytometer gives signals particle by particle.

For test [2], the target named is T1, programmed cell death ligand 1 (PD-L1) …. In words: cell-based or functional assay.

T1 sequence (Q9NZQ7 19-290 limits assumed): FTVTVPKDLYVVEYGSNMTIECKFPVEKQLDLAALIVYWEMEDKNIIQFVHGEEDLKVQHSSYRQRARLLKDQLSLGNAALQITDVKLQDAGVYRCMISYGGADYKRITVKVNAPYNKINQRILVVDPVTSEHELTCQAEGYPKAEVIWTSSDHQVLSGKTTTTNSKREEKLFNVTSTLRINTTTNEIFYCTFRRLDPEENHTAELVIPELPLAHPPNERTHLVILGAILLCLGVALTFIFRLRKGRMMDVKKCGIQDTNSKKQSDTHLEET

B1: anti-PD-L1 nanobody clone #1 (VHH)
VHH: HVQLVESGGGLVQPGGSLRISCAASGFTFSSRAMSWVRQAPGKGLEWVSTINSDGSNTYYSDSVKDRFTISRDNAINTLYLQLNSLKTEDTAMYYCSRCPDIYCGGQYTYRGQGTQVTVSS
notes: Labelled with FITC for flow cytometry; also called PD-L1 nb
Consider B1, for which the binding result in test [1] is listed as “binds”.

B2: anti-PD-L1 nanobody clone #67 (VHH)
VHH: QVQLVESGGGLVQPGGSLRISCAASGFTFSSRAMSWVRQAPGKGLEWVSTVNSDGSNTYYSDSVKDRFTISRDNAINTLYLQLNSLKTEDTAMYYCSRCPDIYCGGQYTYRGQGTQVTVSS
As for B2, in test [2], the “EC50 (read off the curve)” value is ~3 µg/mL.

One may read the EC50 (read off the curve) as the midpoint of the concentration-response curve. Higher therefore signals lower potency in that assay.
